Test results as given in article doi:10.1101/2022.10.31.514592 (bioRxiv, 2022).

B1: S451-1140 IgG (antibody, V domains shown)
VH: EVQLVESGGGLVPPGGSLRLSCAASGFIFSNYAMTWVRQAPGKGLEWVSAISGGGGSTDYADSVKGRFTISRDNSKNTLYLQMNSLRAEDTAVYYCAKDLFGSGWSLFDNWGQGTLVTVSS
VL: not shown
B2: S626-161 IgG (antibody, V domains shown)
VH: QLQLQESGPGLVKPSEALSLTCTVSGGSISTSNYYWGWIRQPPGKGLEWIGSIYYRGGTHYNPSLKTRVTISVDTSKNQFSLKLSSVTAADTAVYYCARHTYFYDIVGAAVWEPFDIWGQGTMVTVSS
VL: not shown
B3: S728-1157 IgG (antibody, V domains shown)
VH: EVQLVESGGGLVQPGGSLRLSCAASGLLVSRNYMNWVRQAPGKGLEWVSIIYSGGSTFYADSVEGRFTISRDESKNTLYLQMNSLRTDDTAVYYCARDLSDYGGIDCWGQGTLVTVSS
VL: ELTQPLSVSMALGQTARISCGGDNVGSQNVHWYQQRPGQAPVLVIYRDSNRPSGIPERFSGSKSGNTATLTISRAQAGDEADYYCQVWDSSTVAFGGGTKLTVL

Legend:
SARS-CoV-2 WT RBD = SARS-CoV-2 WT RBD (SARS-CoV-2, wildtype (Wuhan-Hu-1 type), UniProt P0DTC2); assay: ELISA
SARS-CoV-1 RBD = SARS-CoV-1 RBD (SARS-CoV-1, strain , UniProt P59594); assay: ELISA

Binder | binding result (SARS-CoV-2 WT RBD) | binding result (SARS-CoV-1 RBD)
B1 | binds | 
B2 | binds | binds
B3 | binds | 
